In the series the test system is Escherichia coli TOP10. Put plainly: shrunken log2 fold change of peptide-encoding DNA abundance (4.5 h post-induction vs induction); higher = less antimicrobial activity (less host growth inhibition). The conditions noted are these: time post-induction: 4.5 h; library: site-saturation at positions 5, 18, 19, 20.
As for RRIRHRPPRLPRPRPRPKLKPRP, the “shrunken log2 fold change” value was -0.0873. Take RRIRWRPPRLPRPRPRPDRPPRP: the “shrunken log2 fold change” value is -0.0134. For RRIRLRPPRLPRPRPRPYFYPRP the value was -0.942; for RRIRRRPPRLPRPRPRPLVGPRP, 0.239; for RRIRLRPPRLPRPRPRPNWLPRP, 0.0723. On to RRIRQRPPRLPRPRPRPFKDPRP, for which the “shrunken log2 fold change” value was -0.126.

On to RRIRERPPRLPRPRPRPSMRPRP, for which the “shrunken log2 fold change” value came to 0.353. With RRIRKRPPRLPRPRPRPQLAPRP the figure was 0.898. For RRIRKRPPRLPRPRPRPWRPPRP the value was 0.177. For RRIRHRPPRLPRPRPRPDFQPRP the value was -0.00193; for RRIRFRPPRLPRPRPRPTKLPRP, -0.494.

For RRIRNRPPRLPRPRPRPARKPRP, the “shrunken log2 fold change” value came to 0.0797. Consider RRIRKRPPRLPRPRPRPVVHPRP, for which the “shrunken log2 fold change” value came out at 0.122.

On to RRIRVRPPRLPRPRPRPGNGPRP, for which the “shrunken log2 fold change” value is 0.023.

For the sequence RRIRVRPPRLPRPRPRPAQGPRP, the “shrunken log2 fold change” value is 0.00544. With RRIRRRPPRLPRPRPRPGWNPRP the figure was 0.257.

On to RRIRNRPPRLPRPRPRPVHAPRP, for which the “shrunken log2 fold change” value was 0.0862. With RRIRSRPPRLPRPRPRPGRWPRP the figure was 0.657; with RRIRGRPPRLPRPRPRPHSRPRP, 0.26; with RRIRRRPPRLPRPRPRPYKEPRP, -0.463. With RRIRMRPPRLPRPRPRPACCPRP the figure was 0.646. As for RRIRERPPRLPRPRPRPLEYPRP, the “shrunken log2 fold change” value was -0.494. For RRIRLRPPRLPRPRPRPTDKPRP the value was -0.251. For RRIRKRPPRLPRPRPRPMVMPRP the value was 0.0746; for RRIRWRPPRLPRPRPRPIHSPRP, -0.0401; for RRIRVRPPRLPRPRPRPFAIPRP, -0.765. For the sequence RRIRLRPPRLPRPRPRPNVDPRP, the “shrunken log2 fold change” value was -0.492.

As to RRIRERPPRLPRPRPRPPACPRP, the “shrunken log2 fold change” value turned out to be 0.0779. For RRIRSRPPRLPRPRPRPVTYPRP the value was -0.273; for RRIRPRPPRLPRPRPRPEAYPRP, 0.00183; for RRIRNRPPRLPRPRPRPEAVPRP, 0.0335.

As for RRIRWRPPRLPRPRPRPLPYPRP, the “shrunken log2 fold change” value was -0.192.

Consider RRIRKRPPRLPRPRPRPLGEPRP, for which the “shrunken log2 fold change” value was found to be 0.445.

Consider RRIRMRPPRLPRPRPRPPEVPRP, for which the “shrunken log2 fold change” value came out at 1.25. With RRIRGRPPRLPRPRPRPYFAPRP the figure was 0.357; with RRIRCRPPRLPRPRPRPRATPRP, 0.509; with RRIRQRPPRLPRPRPRPGNKPRP, -0.596.

For the sequence RRIRNRPPRLPRPRPRPWKKPRP, the “shrunken log2 fold change” value was -0.0178. For RRIRYRPPRLPRPRPRPQRTPRP the value was -0.335. Consider RRIRWRPPRLPRPRPRPIYPPRP, for which the “shrunken log2 fold change” value was -0.0275.

With RRIRGRPPRLPRPRPRPMHAPRP, the “shrunken log2 fold change” value turned out to be 1.66. For RRIRIRPPRLPRPRPRPMTWPRP the value was -0.0244.

As for RRIRMRPPRLPRPRPRPIQYPRP, the “shrunken log2 fold change” value turned out to be 0.0408. With RRIRPRPPRLPRPRPRPWQQPRP the figure was -0.0467; with RRIRYRPPRLPRPRPRPPKSPRP, -0.0324. For RRIRFRPPRLPRPRPRPQAIPRP the value was 0.043; for RRIRNRPPRLPRPRPRPKVSPRP, 0.264; for RRIRFRPPRLPRPRPRPESEPRP, 0.0687. For RRIRARPPRLPRPRPRPNHEPRP the value was 0.021; for RRIRWRPPRLPRPRPRPFHCPRP, -0.026; for RRIRCRPPRLPRPRPRPLPQPRP, 0.334. With RRIRIRPPRLPRPRPRPRHRPRP, the “shrunken log2 fold change” value is -0.0972. For the sequence RRIRERPPRLPRPRPRPKLSPRP, the “shrunken log2 fold change” value is -0.173. As to RRIRGRPPRLPRPRPRPQGCPRP, the “shrunken log2 fold change” value stood at 0.394.

RRIRIRPPRLPRPRPRPELDPRP: the “shrunken log2 fold change” value is 0.0332. With RRIRCRPPRLPRPRPRPSSCPRP the figure was -0.211. With RRIRYRPPRLPRPRPRPHGRPRP the figure was -0.00992; with RRIRIRPPRLPRPRPRPERCPRP, 0.296; with RRIRTRPPRLPRPRPRPCWNPRP, 0.00718. With RRIRARPPRLPRPRPRPFCYPRP the figure was 0.0576; with RRIRTRPPRLPRPRPRPMSFPRP, -0.0183; with RRIRKRPPRLPRPRPRPQPLPRP, 0.405. With RRIRMRPPRLPRPRPRPWCMPRP, the “shrunken log2 fold change” value is -0.0453. With RRIRHRPPRLPRPRPRPWKSPRP, the “shrunken log2 fold change” value was -0.0679. With RRIRLRPPRLPRPRPRPEQTPRP the figure was -0.000687; with RRIRHRPPRLPRPRPRPNENPRP, -0.579; with RRIRHRPPRLPRPRPRPFPLPRP, -0.0682. For the sequence RRIRARPPRLPRPRPRPGAQPRP, the “shrunken log2 fold change” value turned out to be 0.92. For RRIRQRPPRLPRPRPRPTAWPRP the value was 0.591.

RRIRTRPPRLPRPRPRPGPTPRP: the “shrunken log2 fold change” value stood at 0.455. With RRIRRRPPRLPRPRPRPEAYPRP, the “shrunken log2 fold change” value was 0.15.

Turning to RRIRRRPPRLPRPRPRPYCLPRP, the “shrunken log2 fold change” value was -0.574. With RRIRYRPPRLPRPRPRPFEPPRP the figure was -0.343; with RRIRARPPRLPRPRPRPKMPPRP, 0.114. Consider RRIRARPPRLPRPRPRPQSAPRP, for which the “shrunken log2 fold change” value amounted to 0.153. For RRIRHRPPRLPRPRPRPNLCPRP the value was 0.0613; for RRIRVRPPRLPRPRPRPGGEPRP, 0.386; for RRIRTRPPRLPRPRPRPHSGPRP, -0.166.

On to RRIRTRPPRLPRPRPRPTLFPRP, for which the “shrunken log2 fold change” value is -0.113. With RRIRFRPPRLPRPRPRPLYYPRP the figure was -0.885; with RRIRIRPPRLPRPRPRPTFSPRP, -0.545.

RRIRWRPPRLPRPRPRPKKYPRP: the “shrunken log2 fold change” value is -0.245. With RRIRVRPPRLPRPRPRPWWYPRP the figure was -0.327. With RRIRFRPPRLPRPRPRPKYAPRP the figure was -0.145; with RRIRDRPPRLPRPRPRPVLDPRP, -0.0729. With RRIRKRPPRLPRPRPRPAYVPRP the figure was 0.108; with RRIRERPPRLPRPRPRPYSTPRP, -0.335; with RRIRQRPPRLPRPRPRPYVFPRP, -0.648. RRIRSRPPRLPRPRPRPALKPRP: the “shrunken log2 fold change” value came to 0.161.

With RRIRIRPPRLPRPRPRPKAAPRP, the “shrunken log2 fold change” value was 0.147.

In the case of RRIRLRPPRLPRPRPRPYALPRP, the “shrunken log2 fold change” value was -0.141. With RRIRPRPPRLPRPRPRPDYDPRP the figure was -0.252; with RRIRMRPPRLPRPRPRPVFVPRP, 0.0672. As for RRIRSRPPRLPRPRPRPREWPRP, the “shrunken log2 fold change” value came to 0.759. With RRIRSRPPRLPRPRPRPLWWPRP the figure was 0.35; with RRIRPRPPRLPRPRPRPSWGPRP, -0.0123; with RRIRSRPPRLPRPRPRPEWQPRP, 0.254.

Regarding RRIRIRPPRLPRPRPRPEIAPRP, the “shrunken log2 fold change” value is -0.141. With RRIRKRPPRLPRPRPRPLIPPRP the figure was -0.000217; with RRIRQRPPRLPRPRPRPVFQPRP, 0.0308; with RRIRWRPPRLPRPRPRPLEIPRP, 0.299. Turning to RRIRCRPPRLPRPRPRPHSVPRP, the “shrunken log2 fold change” value is -0.613.

As to RRIRQRPPRLPRPRPRPNAMPRP, the “shrunken log2 fold change” value was -0.226.

In the case of RRIRVRPPRLPRPRPRPLHCPRP, the “shrunken log2 fold change” value turned out to be 0.238.

Consider RRIRTRPPRLPRPRPRPMIFPRP, for which the “shrunken log2 fold change” value was -0.738. For RRIRWRPPRLPRPRPRPPRTPRP the value was 0.663. For RRIRFRPPRLPRPRPRPMWEPRP the value was -0.232.

Take RRIRFRPPRLPRPRPRPKSCPRP: the “shrunken log2 fold change” value stood at 0.0245. For the sequence RRIRQRPPRLPRPRPRPNFPPRP, the “shrunken log2 fold change” value is -0.00205. With RRIRWRPPRLPRPRPRPMHFPRP the figure was -0.00884; with RRIRRRPPRLPRPRPRPQALPRP, 0.128. For RRIRGRPPRLPRPRPRPEDRPRP the value was 0.23; for RRIRHRPPRLPRPRPRPGITPRP, -0.453. Take RRIRMRPPRLPRPRPRPHCLPRP: the “shrunken log2 fold change” value is -0.0601. As for RRIRVRPPRLPRPRPRPKIDPRP, the “shrunken log2 fold change” value was determined as 0.124. For RRIRRRPPRLPRPRPRPGSPPRP, the “shrunken log2 fold change” value turned out to be 0.107.

Consider RRIRERPPRLPRPRPRPSLVPRP, for which the “shrunken log2 fold change” value is -0.0847. For RRIRRRPPRLPRPRPRPADGPRP the value was 0.344. With RRIRGRPPRLPRPRPRPIQMPRP, the “shrunken log2 fold change” value was -0.027.

RRIRGRPPRLPRPRPRPQELPRP: the “shrunken log2 fold change” value is 0.27. With RRIRRRPPRLPRPRPRPAQTPRP the figure was 0.348; with RRIRHRPPRLPRPRPRPNTIPRP, -0.903; with RRIRFRPPRLPRPRPRPRWRPRP, 0.382.

For the sequence RRIRVRPPRLPRPRPRPDAKPRP, the “shrunken log2 fold change” value stood at 0.0516. For RRIRRRPPRLPRPRPRPTLRPRP the value was 0.712.

For the origin of these results see the supplement of paper PMC9112550, “Optimization of the antimicrobial peptide Bac7 by deep mutational scanning” (BMC Biology, 2022).
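Note: peptides expressed intracellularly from a pBAD plasmid library in pooled LB shake-flask culture, induced with 0.3% L-arabinose, DNA abundance read by NGS, three biological replicates, DESeq2 with apeglm shrinkage.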
